Test results taken from US20250163138A1 (Alexion, published 2025).

Columns and labels:
[1] = biological target: T1, human serum albumin (human, UniProt P02768 25-609); assay: SPR (Biacore 3000), HSA amine-coupled on CM5 chip, pH 6.0, no VHH
T1 construct: also called HSA; human albumin

[2] = biological target: T2, human complement protein C5 (human, UniProt P01031 19-1676); assay: SPR (Biacore), pH 6.0
T2 construct: Native C5 is a two-chain protein made from one precursor; also called hC5; human C5

[3] = biological target: T3, cynomolgus monkey (cyno) complement protein C5 (cynomolgus monkey, UniProt A0A2K5U1T1 19-1676); assay: SPR (Biacore), pH 6.0
T3 construct: also called cC5; cyno C5

[4] = biological target: T4, Plasbumin® (UniProt P02768 25-609); assay: binding kinetics (method not named), pH 6.0
[5] = biological target: T5, Cynomolgus monkey serum albumin (cynomolgus monkey, UniProt A2V9Z4 25-608); assay: binding kinetics (method not named), pH 6.0
T5 construct: also called CSA; cynomolgus albumin

[6] = biological target: T2, human complement protein C5; assay: SPR (Biacore), pH 7.4
[7] = biological target: T3, cynomolgus monkey (cyno) complement …; assay: SPR (Biacore), pH 7.4
[8] = biological target: T2, human complement protein C5; assay: binding kinetics (method not named), pH 7.4
[9] = biological target: T3, cynomolgus monkey (cyno) complement …; assay: binding kinetics (method not named), pH 7.4
[10] = biological target: T4, Plasbumin®; assay: binding kinetics (method not named), pH 7.4
[11] = biological target: T5, Cynomolgus monkey serum albumin; assay: binding kinetics (method not named), pH 7.4
[12] = biological target: T2, human complement protein C5; assay: binding kinetics (method not named), pH 6.0
[13] = biological target: T3, cynomolgus monkey (cyno) complement …; assay: binding kinetics (method not named), pH 6.0
[14] = biological target: T1, human serum albumin; assay: sandwich: biotin-hC5 on CAP chip, test protein, then albumin; column 'Human C5 and Human Albumin'; protein has no anti-albumin domain
Experimental: (§1) The 26 constructs listed in Table 13 were expressed and the fusion proteins were evaluated for binding to human C5 and albumin (Table 13-Octet binding), generation of aggregates, hydrophobicity (HIC HPLC) and glycosylation (electrospray mass spectrometry). For the octet analysis, biotinylated human C5 was captured on a CAP chip followed by an injection of a test bi-specific molecule. Various concentrations of albumin were subsequently injected. Kinetics were determined at pH 7.4 (Biacore 3000).

[15] = biological target: T5, Cynomolgus monkey serum albumin; assay: BLI (Octet HTX), VHH-His on Penta-His sensors, 100 nM albumin
Text: (§2) VHH sequences were first analyzed by SDS-PAGE and Coomassie staining to determine approximate concentration relative to a known standard. Supernatant concentrations were then normalized and subjected to biolayer interferometry on an Octet HTX (Pall/ForteBio). Penta-His sensors were exposed to kinetics buffer for 60 seconds to establish baseline measurements. The sensors were then loaded with VHH-His containing supernatants for 300 seconds before a second baseline was established in kinetics buffer over 120 seconds. Tips were then incubated with 100 nM HSA or CSA in kinetics buffer for 600 seconds and dissociation measured over an additional 600 seconds.

[16] = biological target: T1, human serum albumin; assay: as above
Text: as §2

[17] = biological target: T2, human complement protein C5; assay: sandwich: biotin-hC5 on CAP chip, test protein, then albumin; column 'Human C5 and Human Albumin'; protein has no anti-C5 domain
Experimental: as §1

With FcRn (receptor) the response difference [1] was 30 RU.

B1: CRL0500 (bispecific antibody)
chain: EVQLVESGGGLVKPGGSLRLSCAASGRPVSNYAAAWFRQAPGKEREFVSAINWQKTATYADSVKGRFTISRDNAKNSLYLQMNSLRAEDTAVYYCAAVFRVVAPKTQYDYDYWGQGTLVTVSSGGGGSGGGGSGGGGSEVQLVESGGGLVQPGGSLRLSCAASGRAHSDYAMAWFRQAPGQEREFVAGIGWSGGDTLYADSVRGRFTNSRDNSKNTLYLQMNSLRAEDTAVYYCAARQGQYIYSSMRSDSYDYWGQGTLVTVSS
notes: anti-albumin VHH / (G4S)3 / anti-C5 VHH fusion, purified by Protein A; also called CRL0500 (HSA/C5)
B1 showed a Kd [2] of 189 pM, a koff [2] of 0.00152 s⁻¹ and a kon [2] of 8.02e+06 M⁻¹ s⁻¹. It also gave a Kd [3] of 641 pM, a koff [3] of 0.0025 s⁻¹ and a kon [3] of 3.91e+06 M⁻¹ s⁻¹. The Kd [4] was 563 pM, the koff [4] was 0.002 s⁻¹ and the kon [4] was 3.55e+06 M⁻¹ s⁻¹. For the same molecule, the Kd [5] was 2120 pM, the koff [5] was 0.00693 s⁻¹ and the kon [5] was 3.27e+06 M⁻¹ s⁻¹. It also gave a Kd [6] of 233 pM, a koff [6] of 0.000672 s⁻¹ and a kon [6] of 2.88e+06 M⁻¹ s⁻¹. For the same molecule, the Kd [7] was 420 pM, the koff [7] was 0.000848 s⁻¹ and the kon [7] was 2e+06 M⁻¹ s⁻¹. For the same molecule, the Kd [8] was 51.2 pM, the koff [8] was 0.000491 s⁻¹ and the kon [8] was 9.6e+06 M⁻¹ s⁻¹. It also gave a Kd [9] of 219 pM, a koff [9] of 0.000818 s⁻¹ and a kon [9] of 3.74e+06 M⁻¹ s⁻¹. The Kd [10] was 936 pM, the koff [10] was 0.00346 s⁻¹ and the kon [10] was 3.7e+06 M⁻¹ s⁻¹. It also gave a Kd [11] of 3780 pM, a koff [11] of 0.0126 s⁻¹ and a kon [11] of 3.32e+06 M⁻¹ s⁻¹. It also gave a Kd [12] of 138 pM, a koff [12] of 0.00104 s⁻¹ and a kon [12] of 7.56e+06 M⁻¹ s⁻¹. The Kd [13] was 744 pM, the koff [13] was 0.0041 s⁻¹ and the kon [13] was 5.51e+06 M⁻¹ s⁻¹.

B2: CRL0952 (bispecific antibody)
chain: EVQLVESGGGLVKPGGSLRLSCAASGRPVSNYAAAWFRQAPGKEREFVSAINWQKTATYADSVKGRFTISRDNAKNSLYLQMNSLRAEDTAVYYCAAVFRVVAPKTQYDYDYWGQGTLVTVSSGGGGAGGGGAGGGGSEVQLVESGGGLVQPGGSLRLSCAASGRAHSDYAMAWFRQAPGQEREFVAGIGWSGGDTLYADSVRGRFTNSRDNSKNTLYLQMNSLRAEDTAVYYCAARQGQYIYSSMRSDSYDYWGQGTLVTVSS
B2 was tested, and the Kd [4] was 649 pM, the koff [4] was 0.0021 s⁻¹ and the kon [4] was 3.23e+06 M⁻¹ s⁻¹. It also gave a Kd [5] of 2490 pM, a koff [5] of 0.00755 s⁻¹ and a kon [5] of 3.03e+06 M⁻¹ s⁻¹. It also gave a Kd [8] of 53.6 pM, a koff [8] of 0.000539 s⁻¹ and a kon [8] of 1.01e+07 M⁻¹ s⁻¹. The Kd [9] was 223 pM, the koff [9] was 0.000786 s⁻¹ and the kon [9] was 3.53e+06 M⁻¹ s⁻¹. The Kd [10] was 901 pM, the koff [10] was 0.00359 s⁻¹ and the kon [10] was 3.98e+06 M⁻¹ s⁻¹. It also gave a Kd [11] of 5190 pM, a koff [11] of 0.0152 s⁻¹ and a kon [11] of 2.93e+06 M⁻¹ s⁻¹. For the same molecule, the Kd [12] was 155 pM, the koff [12] was 0.000907 s⁻¹ and the kon [12] was 5.84e+06 M⁻¹ s⁻¹. It also gave a Kd [13] of 720 pM, a koff [13] of 0.00399 s⁻¹ and a kon [13] of 5.55e+06 M⁻¹ s⁻¹.

B3: CRL0483 (bispecific antibody)
chain: EVQLVESGGGLVQPGGSLRLSCAASGRTFSGILSPYAVGWFRQAPGKGLEFVSTITSGGSAIYTDSVKGRFTISRDNAKDSLYLQMNSLRAEDTAVYYCAVRTRRYGSNLGEVPQENEYGYWGQGTLVTVSSGGGGSGGGGSGGGGSEVQLLESGGGLVQPGGSLRLSCAASGFTFRSFGMSWVRQAPGKGPEWVSSISGSGSDTLYADSVKGRFTISRDNSKNTLYLQMNSLRPEDTAVYYCTIGGSLSRSSQGTLVTVSS
notes: anti-C5 VHH / (G4S)3 / anti-albumin VHH fusion, purified by Protein A; also called CRL0483 (C5/HSA)
B3 showed a Kd [2] of 5270 pM, a koff [2] of 0.000211 s⁻¹ and a kon [2] of 40000 M⁻¹ s⁻¹. It also gave a Kd [3] of 1250 pM, a koff [3] of 4.62e-05 s⁻¹ and a kon [3] of 37100 M⁻¹ s⁻¹. It also gave a Kd [6] of 1070 pM, a koff [6] of 0.000242 s⁻¹ and a kon [6] of 225000 M⁻¹ s⁻¹. For the same molecule, the Kd [7] was 240 pM, the koff [7] was 2.2e-05 s⁻¹ and the kon [7] was 91500 M⁻¹ s⁻¹.

B4: TPP-3211 (VHH)
VHH: EVQLVESGGGLVQPGGSLRLSCAASGRAHSDYAMAWFRQAPGQEREFVAGIGWSGGDTLYADSVRGRFTNSRDNSKNTLYLQMNSLRAEDTAVYYCAARQGQYIYSSMRSDSYDYWGQGTLVTVSS
notes: Control: no anti-albumin domain (only anti-C5)
B4: no binding [14].

B5: HAS042 (VHH)
VHH: EVQLVESGGGLVKPGGSLRLSCAASGRPVSNYAAAWFRQAPGKEREFVSAINWQKTATYADSVKGRFTISRDNAKNSLYLQMNSLRAEDTAVYYCAAVFRVVAPKTQYDYDYWGQGTLVTVSS
notes: anti-albumin VHH-His
B5: binds [15]; binds [16].

B6: TPP-3212 (VHH)
VHH: EVQLVESGGGLVKPGGSLRLSCAASGRPVSNYAAAWFRQAPGKEREFVSAINWQKTATYADSVKGRFTISRDNAKNSLYLQMNSLRAEDTAVYYCAAVFRVVAPKTQYDYDYWGQGTLVTVSS
notes: Control: no anti-C5 domain (only anti-albumin)
B6: no binding [17].

B7: CRL0484 (bispecific antibody)
chain: EVQLVESGGGLVQPGGSLRLSCAASGRTFSGILSPYAVGWFRQAPGKGLEFVSTITSGGSAIYTDSVKGRFTISRDNAKDSLYLQMNSLRAEDTAVYYCAVRTRRYGSNLGEVPQENEYGYWGQGTLVTVSSGGGGSGGGGSGGGGSEVQLVESGGGLVKPGGSLRLSCAASGRPVSNYAAAWFRQAPGKEREFVSAINWQKTATYADSVKGRFTISRDNAKNSLYLQMNSLRAEDTAVYYCAAVFRVVAPKTQYDYDYWGQGTLVTVSS
notes: anti-C5 VHH / (G4S)3 / anti-albumin VHH fusion, purified by Protein A; also called CRL0484 (C5/HSA)
In the case of B7, the Kd [2] is reported as 556 pM, the koff [2] is reported as 0.000236 s⁻¹ and the kon [2] is reported as 425000 M⁻¹ s⁻¹. The Kd [3] was 128 pM, the koff [3] was 6.17e-06 s⁻¹ and the kon [3] was 48200 M⁻¹ s⁻¹. The Kd [6] was 1100 pM, the koff [6] was 7.69e-05 s⁻¹ and the kon [6] was 70100 M⁻¹ s⁻¹. The Kd [7] was 240 pM, the koff [7] was 2.2e-05 s⁻¹ and the kon [7] was 91500 M⁻¹ s⁻¹.
